# Data as given in PMC7900914.
# Target: HLA-B*57:01–T3N (human | not stated | HIV-1)
# Assay: SPR
substance,measurement,value
"KIR3DL1*001 (similar construct, from insect cells) (from UniProt P43629 22-444) (receptor)",Kd,100 µM
